Data as given in publication PMC4790447.

B1: wild-type human ventricular regulatory light chain, dephosphorylated (mock phosphorylation reaction) (natural protein)
chain: MAPKKAKKRAGGANSNVFSMFEQTQIQEFKEAFTIMDQNRDGFIDKNDLRDTFAALGRVNVKNEEIDEMIKEAPGPINFTVFLTMFGEKLKGADPEETILNAFKVFDPEGKGVLKADYVREMLTTQAERFSKEEVDQMFAAFPPDVTGNLDYKNLVHIITHGEEKD
B2: wild-type human ventricular regulatory light chain, phosphorylated by MLCK (natural protein)
chain: MAPKKAKKRAGGANSNVFSMFEQTQIQEFKEAFTIMDQNRDGFIDKNDLRDTFAALGRVNVKNEEIDEMIKEAPGPINFTVFLTMFGEKLKGADPEETILNAFKVFDPEGKGVLKADYVREMLTTQAERFSKEEVDQMFAAFPPDVTGNLDYKNLVHIITHGEEKD
modifications: phosphoserine at 15 (95.7 ± 3.6% phosphorylated)
B3: N47K human ventricular regulatory light chain, dephosphorylated (mock phosphorylation reaction) (natural protein)
chain: MAPKKAKKRAGGANSNVFSMFEQTQIQEFKEAFTIMDQNRDGFIDKKDLRDTFAALGRVNVKNEEIDEMIKEAPGPINFTVFLTMFGEKLKGADPEETILNAFKVFDPEGKGVLKADYVREMLTTQAERFSKEEVDQMFAAFPPDVTGNLDYKNLVHIITHGEEKD
B4: N47K human ventricular regulatory light chain, phosphorylated by MLCK (natural protein)
chain: MAPKKAKKRAGGANSNVFSMFEQTQIQEFKEAFTIMDQNRDGFIDKKDLRDTFAALGRVNVKNEEIDEMIKEAPGPINFTVFLTMFGEKLKGADPEETILNAFKVFDPEGKGVLKADYVREMLTTQAERFSKEEVDQMFAAFPPDVTGNLDYKNLVHIITHGEEKD
modifications: phosphoserine at 15 (98.4 ± 1.6% phosphorylated)
B5: R58Q human ventricular regulatory light chain, dephosphorylated (mock phosphorylation reaction) (natural protein)
chain: MAPKKAKKRAGGANSNVFSMFEQTQIQEFKEAFTIMDQNRDGFIDKNDLRDTFAALGQVNVKNEEIDEMIKEAPGPINFTVFLTMFGEKLKGADPEETILNAFKVFDPEGKGVLKADYVREMLTTQAERFSKEEVDQMFAAFPPDVTGNLDYKNLVHIITHGEEKD
B6: R58Q human ventricular regulatory light chain, phosphorylated by MLCK (natural protein)
chain: MAPKKAKKRAGGANSNVFSMFEQTQIQEFKEAFTIMDQNRDGFIDKNDLRDTFAALGQVNVKNEEIDEMIKEAPGPINFTVFLTMFGEKLKGADPEETILNAFKVFDPEGKGVLKADYVREMLTTQAERFSKEEVDQMFAAFPPDVTGNLDYKNLVHIITHGEEKD
modifications: phosphoserine at 15 (87.4 ± 0.8% phosphorylated; full phosphorylation never accomplished)

molecular target: RLC-depleted porcine cardiac β-myosin (porcine) (UniProt P79293); assay: co-sedimentation

**Q.** B1 was tested. Which percent reconstitution (densitometry) did it give?
**A.** 108%

**Q.** Which percent reconstitution (densitometry) does the source give for B2 here?
**A.** 109%

**Q.** Which percent reconstitution (densitometry) does the source give for B3 here?
**A.** 106%

**Q.** B4 was tested. Which percent reconstitution (densitometry) did it give?
**A.** 96.2%

**Q.** B5 was tested. Which percent reconstitution (densitometry) did it give?
**A.** 97.8%

**Q.** For B6, which percent reconstitution (densitometry) is on record?
**A.** 107%
